The nanobody polyreactivity screen of Harvey et al. (2022)

Assay: yeast display, Sf9 membrane polyspecificity reagent, FACS + sequencing; frameworks hold sequencing errors
Summary of the method: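 Nanobodies came from a synthetic yeast display library in Saccharomyces cerevisiae BJ5465, induced with galactose for 36–48 hours and stained for 1 hour at 4 °C with 10% biotinylated, detergent-solubilized Sf9 membrane reagent. Cells were enriched on streptavidin microbeads and then FACS-sorted, with low and high (top ~1%) gates set on anti-HA fluorescence for expression and streptavidin fluorescence for reagent binding. Each polyreactivity label reflects the gate a clone came from. Genes were amplified by colony PCR, sequenced by MiSeq 2 × 250 and filtered by CDR length.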

Sequence | polyreactivity (PSR sort gate)
QVQLVESGGGLVQAGGSLRLSCAASGYIFRWYAMGWYRQAPGKERELVAAISGRGGRTYYADSVKGRFTISRDNAKNTVYLQMNSLKPEDTAVYYCAAVPVVQSQPTYYYWGQGTQVTVSS | high polyreactivity
QVQLVEAGLGLVQAGGSLRLSCAASGFIFVANAMVWYRQAPGKERELVAAISFSSTSTRYADSVKGRFTISRDNAKNTVYLQMNSLKPEDTAVYYCAVDLTFSEFDYWGQGTQVTVSS | low polyreactivity
QVQLVESGGGLVQAGGSLRLSCAASGSIFVYYAMGWYRQAPGKERELVAAITSGGSTNYADSVKGRFTISRDNAQNTVYLQMNSLKPEDTAVYYCAVVTRAHPEDYWGQGTQVTVSS | high polyreactivity
QVQLVESGGGLVQAGGSLRLSCAASGNILGYNAMGWYRQAPGKERELVAAISWIGGSTYYADSVKGRFTISRDNAKNTVYLQMNSLKPEDTAVYYCAARRVIYYPAFYYDYYYWGQGTQVTVSS | low polyreactivity
QVQHVESGGGLVQAGRSLRLSCAASGILRRYAMGWYIQERGKERELVAAITRTGGRTYYADSVKGRFTISRDNAKNTVYLQMNSLKPEDTAVYYCATDRYVVSGMDYWGQGTQVTVSS | high polyreactivity
QVQLVESGGGLVQAGGSLRLSCAASGYIFGAYAMGWYRPAPGKERELVAGITASGDSTYYADSVKGRFTISRDNAKNTVYLQMNSLKPEDTAVYYCNAQPDIGLYDRQWKEPYEYWGQGTQVTVSS | low polyreactivity
QVQLVESGVGLVQAGGSLRLSCAASGRIFSKYAMGWYRQAPGKERELVAAISANGGGSTYYADSVKGRFTISRDNAKNTFYLQMNSLKPEDSAVYYCAALAYSTTRGRLDYWGQGTQVTVSS | high polyreactivity
QVQLHESGGGLVQAGGSLRMSCAASGTISVTYNKGWYRQAPGKEREFVAGNSTGATTNYADSVKGRFTISRDNAKNCVYLQMNSLKPDDTAVYYCAAHIYRQDHFYYWGQGTQVTVSS | low polyreactivity
QVQLVESGGGLVQAGGSLRLSCAASGGTFNAYAMGWYRQAPGKERELVATISYSGGSTYYADSVKGRFTISRDNAKNTVYLQMNSLKPEDTAVYYCAKVRYYPYSPGGLDYWGQGTQVTVSS | low polyreactivity
QVQLVESGGGLVQAGGSLRLSCAASGLTFWDYAMGWYRQAPGKERELVAGINTRGTSTYYADSVKGRFTISRDNAKNTVYLQMNSLKPEDTAVYYCAAEFFGYWYGIQYDYWGQGTQVTVSS | high polyreactivity
QFHLVESGRGLVQAGGSLRLSCAASGRIFCVNAMGWYRQAPGKERELVADISSGGSTNYADSVKGRFTISRDNAKNTVYLQMNSLKPEDTAFYYCNARFRFRYKFPSRNSWGQGTLVTVSS | high polyreactivity
QVQLVESGGGLVPAGGSLRLSCAASGFIYWYAMGWYRQAPGKETELVAAITWSGGSTYADSVKGRFTISRDNAKNTVYLQMNCLKPEDSAVYYCAADKYSQWSSHTRVRYDYWGQGTQETVSS | low polyreactivity
QVQLVESGGGLVHAGGSLRLSCSASGSTFGPYAMGWYRQAPGKERELVAAISSRGARTYYADSVKGRFTISRDNAKNTVYLQMNSLKPEDTAVYYCANTYHGTAYDYWGQGTQVTVSS | high polyreactivity
QVQLVESGGGLVQAGLTLRLSCAASGRIFYPYAMVWYRQAPGKERELVAYNTRSGGSTRYADSVKGRFTISRDNAKNTLYLQMNSLITEDTAVDYCAARTWGRRSSSWGGYYWGQGTQVTVSS | high polyreactivity
QVQLVESGGGLVQAGGSLRLSCAASGRTLAPYAMGWYRQAPGKERELVAISTIGGSTYYADSVKGRFTISRDNAKNTVYLQMNSLKPEETAVYYGAADGNSTGVYLAGGEGFAYDYWGQVTQVTVSS | low polyreactivity
QVQLVESGGGLVQAGGSLRLSCAASGSIFAWYALGWYRQAPGKERELVADITQSGGSTYYADSVKGRFTISRDNAKNTVYLQMNSLKPEDTAVYYCVDYWYNYLQSGWEDDYWGQGTQVTVSS | low polyreactivity
PVQLVESGGGLVQAGGSLRLSCAASGSTFLYSAMGWYRQAPGKERELVAGISAAGGSSYYADAVKGRFTISRDNAKNTVYIQMNSLKPEDTAVYYCNATRVVIRHSYDYWGQGTQVTVSS | high polyreactivity
QVQLVESGGGLVQAGGILRLSCPASGIIFDGNVMGWYRQAPGKEREFVASISISGGSTSYADSVKGRFTISRDNAKNTVYLQMNSLKPEDTAVYYCNTDVGYGRVWRWRYHGDYWGQGTQVTVSS | low polyreactivity
QVQLVESGGGLVQAGGSLRLICAASGIILFYAMGWYRQAPGKERELVAAISSGGGTSYADSVKGRFTLSRDNAKKTVYLQMNSLKPEDTAVYYCAKTDGFYRGDGYWGQGTQVNVSS | low polyreactivity
QDQLVESGGGLVQAGGSLRLSCAASGSIFYDKAMAWYRQAPGKEREFVASITNSGSTNYADSVKGRFTISRDNAKNTVYLQMNSLKAEDTAVYFCAAEVYVDYTGYSYFDYPYDYWGQGTHVTVSS | low polyreactivity
QVQLVESGGLLVQAGGSLRLTCAASGSTFGRNAMGWYRQATGKERQLVAAITASGGTTYYADSVKGRFTISRDNAKNTVYLHMNSLKPEDTAVYDCARAGHFSFKYDYWGQGTQVTVSS | low polyreactivity
QVQLVESGGGLVQAGGSLRLSCAASGYIFAVYAMGWYRQAPGKEREFVAVITWRGGSTYYADSVKGRFTISRDNAKNTVYLQMNSLKPEDTAVYYCAADVYAQYDYWGQGTQVTVSS | high polyreactivity

Sequence | polyreactivity (PSR sort gate)
QVQLVESGGGLVQAGGSLRLSCDASGGTITNYAMGWYRQAPGKERELVAAITDSGATTYYADSVKGRFTISLVTAKNPVSLQMNSLKPEDTAVYDCNAELDLYTYFDYWGQGTQVTVSS | low polyreactivity
QVQLVESGGGLVQAGGSLRLSCAASGNIFSRNAMGWYRQAPGKERELVASIRWSGGSTYADSVKGRFTISRDNAKNTVYLQMNSLKPEDTAVYYCAADSLHGRKFRGVDYWGQGTEVTVSS | low polyreactivity
KVQLVESGGGLVQAGGSLRLSCAASGRIFYYNAMGWYRQAPGKERELVAVITGGGSTNYADSVKGRFTISRDNAKNTVYLQMNSLKPEDTAGYYCAARRAWGTKYHGYDYWGQGTQVNVSS | low polyreactivity
QVQLVESGGGLVQAGGSLRLSCAASGFIFHYNAMGWYRQAPGKERELVAAISARGGGTYYADSVKGRFTISRDNAKNTVYLQMNSLKPEDTAVYYCAAGNYPLGDGYWGQGTQVTVSS | high polyreactivity
QFQLVESGGGLVQAGGSLRLSCAASGSIFGYYAMGWYRQAPGKESELVAAISASGGTTYYADSVKGRFTISRDYAKNTVYLQMNSLKPEDTAVYYCNKLYLKPGRYYYWGQGTQVTVSS | high polyreactivity
QVQLVESGGGLVQAGGSLRLSCAASGFTLSYNVMGWYRQAPGKERELVAAISDSGGSTYYADSVKGRFTISRDNAKNTVYLQMNSLKPEDTAVYYCAAYYPTRYQYGTIWVAYNYWGQGTQVTVSS | low polyreactivity
QVQLVESGGGLVQAGGSLRLSCAASGFIFKSYAMGWYRQAPGKERELVAAITSGGSTYYADSVKGRFTISRDNAKNTVYLQMNSLKPEDTAVYYCATRYRFGWGLSWYDYWGQGTQVTVSS | high polyreactivity
QVQLVESGGGLVQAGGSLRLSCAASGRTFGVYAMGCYRQAPGKERELVAGIRWRGGSTYYADSVKGRFTNSRDNAKNTVYLQMNSLKPEDTAVYYCAADVYLVKYDYWGQGTQVTVSS | low polyreactivity
QVQLVESGGGLVQAGGSLRLSCAASGFTVPGYAMGWYRQAPGNERELVAAINSSGGRTYYADSVKGRFTISRDTAKITVYFQMTSLKPEDTAVYYCAATRWYIRARYNYWGQGTQVTVSS | high polyreactivity
QVQLVESGGDLVQAGGSLRLSCAASGRTFRYYAMGWYRLAPGKERELVAAISSSGDRTYYADSVKGRFTISRDTAKNTVYLQLNSLKPEDTAVYYCAADRGARGDYCGQGTQVTVSS | high polyreactivity
QVQLVESGGGLVQAGGSLRLSCAASGSIFDGYAMGWYRQAPGKEREFVASIRFSTGRTYYADSVKGRFTISRDNAKNTVYLQMNSLKPEDTAVYYCNAPQGFVWRYSSWGPYDYWGQGTQVTVSS | high polyreactivity
QVQLVESGGGLIQAGGSLRLSCAASGIIFYPYTMGWYRQAPGKERELVAAIRQSGTSTYYADSVKGRFTISRDNAKNTVYLQMNSLKPEDTAVYYCAAPPYYSYDYWGQGTQVTVSS | low polyreactivity
QDQRVESGGGIDQAGGSLRLSCAASGSTVDFNAMGWYRQAPGTERELVAAITYSGGSTYYADSVKGRFTISRDNAKNTVYLQMNSLKPQDTAVYYCAAEDVYPGSIDMDYWGQGTQVSVSS | low polyreactivity
QVQLVESGGGLVQEGGSLRLSCAASGSTFIDYAMGWYRQAPGKERELVAAITNGGNTKYADSVKGRFTISRDNAKNTVYLQMHSLKPEETAVYYGAREPSIFTPSYDYWGQGTQVTVSS | low polyreactivity
QVQLVESGGGLVQAGGSLRLSCAASGITFIWYAMGWYRQAPGKERELVAAISTSGGSTYYADSVKGRFTISRDNAKNTVYLQMNSLKPEDTAVYYCAAVSGGVSRSYDRYYWGQGTQVTVSS | high polyreactivity
QVQLVESGGGLVQAGGSLRLSCAASGSTLSYYAMGWYRPAPGKDRELVAAISFSGGITYYADSVKGRFTISRDNAKNTVYLQMNSLKPEDTAVYYCNAEYQVYRAYVIWYDYWGQGTQVTVSS | high polyreactivity
QVQLVESGGGLVQAGGSLRLSCAASGFTFSKYAMGWYRQAPGKERELVAGITWSGGRTYYADSVKGRFTISRDNAKNTVYLQLNSLIPDDSAVYYCAADPVWGRYIKYDYWGQGTQVTVSS | high polyreactivity
QVQLVESGGGLVQAGGSLRLSCAASGRIFSFNTMGWYRQAPGKEREFVATIRYSGGSTYADSVKGRFTISRDNAKNTVYLQMNSLKPEDTAVYYCAAAWWSYKFNRDFDYWGQGTQVTVSS | low polyreactivity
QVQLVASGGGLVQAGGSLRLSCAASGLIIRYYAMGWYRQAPGKEREFVAAITWNGGSTYADSVKGRFTISRDNAKNTVNLQMNSLIPEDTAVYYCAADLSYWDDFDYSGQGTQVTVSS | low polyreactivity
QVQLVESGGGLVQAGCSLRLSCAASGRIFSFYAMGWYRQAPGKERELVITSGGDTNYADSVKGRFTISRDNAKNTVYLQLNSLKPEDTAVYYCNAEGDRSQPYNFDYWGQGTQVTVSS | low polyreactivity
QVQLQESGGGLVLAGGSLRLSCSASGNISVYGSMGWYRQAPGKEREFVATIDPGTNTNYADSMKDRFTISRDNAKNTVYLQMNSLKPEDTAVYYCAVEAGSDWPYRYWGQGTQVTVSS | low polyreactivity
